In paper PMC11271964, “Design and characterization of hyperactive mutants of the Agrobacterium tumefaciens telomere resolvase, TelA”:
Numbering of substitutions follows the chain as printed.

Key:
[1] = target: TelA (107–442) N-terminal domain deletion mutant with the E337K mutation (Agrobacterium tumefaciens)
TelA wild type = target: T1, TelA wild type (Agrobacterium tumefaciens, UniProt Q7CWV1 1-442); assay: EMSA; 2 mM Ca2+; c1 and c2 complexes; EMSA: HEPES pH 7.6, 1 mM DTT, 2 mM CaCl2, 100 ug/mL BSA, 50 mM potassium glutamate, 0.8 ug/mL supercoiled pUC19 competitor, 76 ng/mL heparin sulphate, 2 nM labeled rTel, 0 C; settings: protein: recombinant; chain copies: 2; label: 5'-fluorescein on strand 1; 5' overhang 2 nt at both ends
T1 sequence: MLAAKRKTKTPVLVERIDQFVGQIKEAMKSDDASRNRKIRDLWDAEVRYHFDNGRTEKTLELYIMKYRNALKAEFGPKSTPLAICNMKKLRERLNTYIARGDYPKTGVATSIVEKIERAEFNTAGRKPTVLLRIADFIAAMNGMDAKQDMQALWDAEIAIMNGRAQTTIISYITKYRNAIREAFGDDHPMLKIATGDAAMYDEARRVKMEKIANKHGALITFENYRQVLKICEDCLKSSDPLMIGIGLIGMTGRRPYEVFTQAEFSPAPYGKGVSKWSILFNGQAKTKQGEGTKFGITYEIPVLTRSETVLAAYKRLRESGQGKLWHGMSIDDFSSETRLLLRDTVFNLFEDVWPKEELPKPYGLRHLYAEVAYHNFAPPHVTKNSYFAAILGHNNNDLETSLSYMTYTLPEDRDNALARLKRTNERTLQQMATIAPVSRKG

[2] = target: T2, TelA N-terminal domain (N; K9E) (Agrobacterium tumefaciens, UniProt Q7CWV1 1-106, K9E); assay: EMSA; 2 mM Ca2+; EMSA: HEPES pH 7.6, 1 mM DTT, 2 mM CaCl2, 100 ug/mL BSA, 50 mM potassium glutamate, 0.8 ug/mL supercoiled pUC19 competitor, 76 ng/mL heparin sulphate, 2 nM labeled rTel, 0 C; settings: protein: recombinant; label: 5'-fluorescein on strand 1; 5' overhang 2 nt at both ends
T2 sequence: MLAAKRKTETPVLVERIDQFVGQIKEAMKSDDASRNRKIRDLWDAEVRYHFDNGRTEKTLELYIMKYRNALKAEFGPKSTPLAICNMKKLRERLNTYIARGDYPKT

TelA (ΔC3; D202AE337K) = target: T3, TelA (ΔC3; D202AE337K) (Agrobacterium tumefaciens, UniProt Q7CWV1 1-439, D202A;E337K); assay: as above; settings: protein: recombinant; chain copies: 2; label: 5'-fluorescein on strand 1; 5' overhang 2 nt at both ends
T3 sequence: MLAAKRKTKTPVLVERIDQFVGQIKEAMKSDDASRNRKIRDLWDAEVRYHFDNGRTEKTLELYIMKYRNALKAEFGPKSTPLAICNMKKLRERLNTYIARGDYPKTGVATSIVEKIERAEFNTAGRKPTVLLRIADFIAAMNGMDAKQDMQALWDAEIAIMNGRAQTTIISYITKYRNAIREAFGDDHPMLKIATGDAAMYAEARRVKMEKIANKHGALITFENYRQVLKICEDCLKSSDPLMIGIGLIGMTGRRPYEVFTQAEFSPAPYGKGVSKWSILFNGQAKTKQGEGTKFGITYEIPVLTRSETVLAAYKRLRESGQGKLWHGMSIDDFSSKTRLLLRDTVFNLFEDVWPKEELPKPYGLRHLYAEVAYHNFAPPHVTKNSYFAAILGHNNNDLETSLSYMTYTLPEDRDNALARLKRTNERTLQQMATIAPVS

TelA (ΔNΔC3; D202RE337K) = target: T4, TelA (ΔNΔC3; D202RE337K) (Agrobacterium tumefaciens, UniProt Q7CWV1 107-439, D202R;E337K); assay: as above; settings: protein: recombinant; chain copies: 2; label: 5'-fluorescein on strand 1; 5' overhang 2 nt at both ends
T4 sequence: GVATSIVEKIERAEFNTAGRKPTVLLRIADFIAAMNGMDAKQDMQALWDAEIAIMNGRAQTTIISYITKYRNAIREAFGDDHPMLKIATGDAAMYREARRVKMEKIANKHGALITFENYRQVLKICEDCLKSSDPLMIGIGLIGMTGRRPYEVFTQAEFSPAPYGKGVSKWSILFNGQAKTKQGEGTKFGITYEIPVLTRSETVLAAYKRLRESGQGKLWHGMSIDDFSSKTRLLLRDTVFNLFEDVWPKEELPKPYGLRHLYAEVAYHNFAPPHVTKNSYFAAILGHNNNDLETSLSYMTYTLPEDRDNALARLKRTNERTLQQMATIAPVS

TelA (ΔN) = target: T5, TelA (ΔN) (Agrobacterium tumefaciens, UniProt Q7CWV1 107-442); assay: as above; settings: protein: recombinant
T5 sequence: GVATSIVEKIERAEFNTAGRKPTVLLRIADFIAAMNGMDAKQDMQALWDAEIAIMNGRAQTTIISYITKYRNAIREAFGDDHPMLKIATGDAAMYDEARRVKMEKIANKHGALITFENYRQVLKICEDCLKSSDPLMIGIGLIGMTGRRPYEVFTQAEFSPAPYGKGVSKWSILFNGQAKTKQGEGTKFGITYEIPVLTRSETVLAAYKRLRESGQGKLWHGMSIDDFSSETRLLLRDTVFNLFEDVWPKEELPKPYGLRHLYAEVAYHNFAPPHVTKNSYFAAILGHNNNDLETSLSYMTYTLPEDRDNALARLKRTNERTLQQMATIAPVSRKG

[3] = target: T6, TelA N-terminal domain (N) (Agrobacterium tumefaciens, UniProt Q7CWV1 1-106); assay: EMSA; 2 mM Ca2+; laddering bandshift; EMSA: HEPES pH 7.6, 1 mM DTT, 2 mM CaCl2, 100 ug/mL BSA, 50 mM potassium glutamate, 0.8 ug/mL supercoiled pUC19 competitor, 76 ng/mL heparin sulphate, 2 nM labeled rTel, 0 C; settings: protein: recombinant; label: 5'-fluorescein on strand 1; 5' overhang 2 nt at both ends
T6 sequence: T2 sequence with E9K

## TelA (1–106) N-terminal domain with the K9E mutation (from UniProt A0A822V2W1 1-106) (domain or fragment)
[1]
  fold reduction of the initial rate of telomere resolution by (ΔN; E337K) at 0°C when (N; K9E) is added in trans: 10 fold

## TelA (1–106), N-terminal domain of the Agrobacterium tumefaciens telomere resolvase TelA (from UniProt A0A822V2W1 1-106) (domain or fragment)
[1]
  fold reduction of the initial rate of telomere resolution by (ΔN; E337K) at 0°C when the N-terminal domain (N, 800 nM, about 10-fold molar excess) is added in trans: 22 fold

B1: rTel (OGCB951F/OGCB952) (dsDNA)
DNA 1: AACTCTAACCATTGCGCGATCGATCATAATAACAATATCATGATATTGTTATTGTAATCGATCGCGGATCCCGGGCGTAGCCACGTAGGT
DNA 2: GAACCTACGTGGCTACGCCCGGGATCCGCGATCGATTACAATAACAATATCATGATATTGTTATTATGATCGATCGCGCAATGGTTAGAG
TelA wild type
  binding result: binds
[2]
  binding result: no binding
TelA (ΔC3; D202AE337K)
  binding result: binds
TelA (ΔNΔC3; D202RE337K)
  binding result: binds
TelA (ΔN); chain copies: 2, label: 5'-fluorescein on strand 1, 5' overhang 2 nt at both ends
  binding result: no binding
[3]
  binding result: binds

B2: hairpin telomere (hp), OKBA28F (structured_DNA)
DNA: ATCCCTCTAACCATTGCGCGATCGATCATAATAACAATATCATGATATTGTTATTATGATCGATCGCGCAATGGTTAGAGG
TelA (ΔN); label: 5'-fluorescein, hairpin, 5' overhang 3 nt
  binding result: no binding
